# B1: Fanconi anemia group G protein (Homo sapiens), O15287 (parent)
# chain: MSRQTTSVGSSCLDLWREKNDRLVRQAKVAQNSGLTLRRQQLAQDALEGLRGLLHSLQGLPAAVPVLPLELTVTCNFIILRASLAQGFTEDQAQDIQRSLERVLETQEQQGPRLEQGLRELWDSVLRASCLLPELLSALHRLVGLQAALWLSADRLGDLALLLETLNGSQSGASKDLLLLLKTWSPPAEELDAPLTLQDAQGLKDVLLTAFAYRQGLQELITGNPDKALSSLHEAASGLCPRPVLVQVYTALGSCHRKMGNPQRALLYLVAALKEGSAWGPPLLEASRLYQQLGDTTAELESLELLVEALNVPCSSKAPQFLIEVELLLPPPDLASPLHCGTQSQTKHILASRCLQTGRAGDAAEHYLDLLALLLDSSEPRFSPPPSPPGPCMPEVFLEAAVALIQAGRAQDALTLCEELLSRTSSLLPKMSRLWEDARKGTKELPYCPLWVSATHLLQGQAWVQLGAQKVAISEFSRCLELLFRATPEEKEQGAAFNCEQGCKSDAALQQLRAAALISRGLEWVASGQDTKALQDFLLSVQMCPGNRDTYFHLLQTLKRLDRRDEATALWWRLEAQTKGSHEDALWSLPLYLESYLSWIRPSDRDAFLEEFRTSLPKSCDL
# partner: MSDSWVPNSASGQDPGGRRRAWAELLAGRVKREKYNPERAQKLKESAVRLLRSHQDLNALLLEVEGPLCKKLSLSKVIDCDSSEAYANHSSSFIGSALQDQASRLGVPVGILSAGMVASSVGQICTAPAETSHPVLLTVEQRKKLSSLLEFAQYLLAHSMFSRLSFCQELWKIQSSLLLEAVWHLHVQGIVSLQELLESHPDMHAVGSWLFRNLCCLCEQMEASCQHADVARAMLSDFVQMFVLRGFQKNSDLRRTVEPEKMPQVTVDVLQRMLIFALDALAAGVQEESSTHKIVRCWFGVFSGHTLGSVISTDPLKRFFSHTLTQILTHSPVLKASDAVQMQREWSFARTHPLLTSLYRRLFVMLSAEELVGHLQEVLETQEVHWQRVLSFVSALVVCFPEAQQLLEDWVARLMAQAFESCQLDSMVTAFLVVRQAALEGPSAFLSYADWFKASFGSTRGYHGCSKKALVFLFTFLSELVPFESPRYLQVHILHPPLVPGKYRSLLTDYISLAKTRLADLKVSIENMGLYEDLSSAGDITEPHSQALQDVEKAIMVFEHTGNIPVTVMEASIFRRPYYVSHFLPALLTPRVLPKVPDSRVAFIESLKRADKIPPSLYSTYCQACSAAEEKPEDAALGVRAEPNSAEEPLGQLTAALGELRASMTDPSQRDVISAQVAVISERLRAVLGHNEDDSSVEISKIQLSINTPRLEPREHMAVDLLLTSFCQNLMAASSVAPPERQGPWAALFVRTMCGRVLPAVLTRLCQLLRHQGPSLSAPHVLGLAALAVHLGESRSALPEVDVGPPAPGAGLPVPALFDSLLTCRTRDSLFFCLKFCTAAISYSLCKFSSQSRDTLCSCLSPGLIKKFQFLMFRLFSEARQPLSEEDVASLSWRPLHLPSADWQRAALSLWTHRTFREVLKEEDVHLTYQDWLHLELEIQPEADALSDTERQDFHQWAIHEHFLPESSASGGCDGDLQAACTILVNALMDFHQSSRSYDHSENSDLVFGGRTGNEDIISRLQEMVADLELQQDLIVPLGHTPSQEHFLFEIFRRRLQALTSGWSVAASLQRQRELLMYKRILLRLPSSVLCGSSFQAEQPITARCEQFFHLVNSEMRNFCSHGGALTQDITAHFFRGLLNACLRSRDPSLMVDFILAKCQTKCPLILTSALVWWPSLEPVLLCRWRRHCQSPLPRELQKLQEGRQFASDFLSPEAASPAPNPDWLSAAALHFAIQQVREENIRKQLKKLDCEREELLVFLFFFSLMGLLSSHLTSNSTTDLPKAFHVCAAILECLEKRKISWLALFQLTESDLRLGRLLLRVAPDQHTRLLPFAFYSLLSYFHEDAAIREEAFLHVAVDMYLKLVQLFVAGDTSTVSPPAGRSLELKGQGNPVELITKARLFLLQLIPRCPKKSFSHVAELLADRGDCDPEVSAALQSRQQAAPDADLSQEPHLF
# B2: Fanconi anemia group C protein (Homo sapiens), Q00597 (parent)
# chain: MAQDSVDLSCDYQFWMQKLSVWDQASTLETQQDTCLHVAQFQEFLRKMYEALKEMDSNTVIERFPTIGQLLAKACWNPFILAYDESQKILIWCLCCLINKEPQNSGQSKLNSWIQGVLSHILSALRFDKEVALFTQGLGYAPIDYYPGLLKNMVLSLASELRENHLNGFNTQRRMAPERVASLSRVCVPLITLTDVDPLVEALLICHGREPQEILQPEFFEAVNEAILLKKISLPMSAVVCLWLRHLPSLEKAMLHLFEKLISSERNCLRRIECFIKDSSLPQAACHPAIFRVVDEMFRCALLETDGALEIIATIQVFTQCFVEALEKASKQLRFALKTYFPYTSPSLAMVLLQDPQDIPRGHWLQTLKHISELLREAVEDQTHGSCGGPFESWFLFIHFGGWAEMVAEQLLMSAAEPPTALLWLLAFYYGPRDGRQQRAQTMVQVKAVLGHLLAMSRSSSLSAQDLQTVAGQGTDTDLRAPAQQLIRHLLLNFLLWAPGGHTIAWDVITLMAHTAEITHEIIGFLDQTLYRWNRLGIESPRSEKLARELLKELRTQV
# partner: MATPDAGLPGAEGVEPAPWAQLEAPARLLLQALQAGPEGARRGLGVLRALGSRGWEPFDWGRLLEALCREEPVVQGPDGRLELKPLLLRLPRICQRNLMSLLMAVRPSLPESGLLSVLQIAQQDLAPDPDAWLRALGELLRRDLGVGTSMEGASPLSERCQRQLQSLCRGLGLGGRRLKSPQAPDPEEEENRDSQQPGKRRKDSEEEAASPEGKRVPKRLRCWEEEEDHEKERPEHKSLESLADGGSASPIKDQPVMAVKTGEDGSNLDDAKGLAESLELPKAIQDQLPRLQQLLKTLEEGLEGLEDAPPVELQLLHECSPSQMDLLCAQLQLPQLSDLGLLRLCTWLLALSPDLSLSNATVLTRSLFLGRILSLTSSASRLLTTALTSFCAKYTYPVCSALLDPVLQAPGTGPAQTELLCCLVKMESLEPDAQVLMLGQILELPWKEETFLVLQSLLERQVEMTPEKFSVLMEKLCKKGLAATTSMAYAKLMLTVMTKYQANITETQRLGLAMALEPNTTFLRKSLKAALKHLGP
# Variants of: B1
# Conditions: with fanca_human FANCA
row,effect of a mutation on the interaction,Variant
1,disrupting interaction,L71P

# Variants of: B2
# Conditions: with fance_human FANCE
row,effect of a mutation on the interaction,Variant
1,disrupting interaction,L554P
